The values below come from patent publication US20220411488A1 (APHARMA, published 2022).

Where a chain is given by its changes, count along the chain named.

This test deals with T1, human ITIH-1 antigen (inter-alpha trypsin inhibitor heavy chain 1) (human).
T1 construct: Produced in HEK293F cells and purified; used as the immunogen; also called SHAP
As to the kind of experiment: biolayer interferometry, AR2G biosensor, antibody as ligand. On the procedure:
5D6 and 9E1 were bound to ITIH1 with high affinity, as shown in the table below, and affinity was determined by AbClon Inc. using an AR2G (Bio-Sensor).
On the technique in general: Biolayer interferometry detects binding as a change in optical thickness at a sensor tip.

T1 sequence (chain, as listed by the source limits assumed): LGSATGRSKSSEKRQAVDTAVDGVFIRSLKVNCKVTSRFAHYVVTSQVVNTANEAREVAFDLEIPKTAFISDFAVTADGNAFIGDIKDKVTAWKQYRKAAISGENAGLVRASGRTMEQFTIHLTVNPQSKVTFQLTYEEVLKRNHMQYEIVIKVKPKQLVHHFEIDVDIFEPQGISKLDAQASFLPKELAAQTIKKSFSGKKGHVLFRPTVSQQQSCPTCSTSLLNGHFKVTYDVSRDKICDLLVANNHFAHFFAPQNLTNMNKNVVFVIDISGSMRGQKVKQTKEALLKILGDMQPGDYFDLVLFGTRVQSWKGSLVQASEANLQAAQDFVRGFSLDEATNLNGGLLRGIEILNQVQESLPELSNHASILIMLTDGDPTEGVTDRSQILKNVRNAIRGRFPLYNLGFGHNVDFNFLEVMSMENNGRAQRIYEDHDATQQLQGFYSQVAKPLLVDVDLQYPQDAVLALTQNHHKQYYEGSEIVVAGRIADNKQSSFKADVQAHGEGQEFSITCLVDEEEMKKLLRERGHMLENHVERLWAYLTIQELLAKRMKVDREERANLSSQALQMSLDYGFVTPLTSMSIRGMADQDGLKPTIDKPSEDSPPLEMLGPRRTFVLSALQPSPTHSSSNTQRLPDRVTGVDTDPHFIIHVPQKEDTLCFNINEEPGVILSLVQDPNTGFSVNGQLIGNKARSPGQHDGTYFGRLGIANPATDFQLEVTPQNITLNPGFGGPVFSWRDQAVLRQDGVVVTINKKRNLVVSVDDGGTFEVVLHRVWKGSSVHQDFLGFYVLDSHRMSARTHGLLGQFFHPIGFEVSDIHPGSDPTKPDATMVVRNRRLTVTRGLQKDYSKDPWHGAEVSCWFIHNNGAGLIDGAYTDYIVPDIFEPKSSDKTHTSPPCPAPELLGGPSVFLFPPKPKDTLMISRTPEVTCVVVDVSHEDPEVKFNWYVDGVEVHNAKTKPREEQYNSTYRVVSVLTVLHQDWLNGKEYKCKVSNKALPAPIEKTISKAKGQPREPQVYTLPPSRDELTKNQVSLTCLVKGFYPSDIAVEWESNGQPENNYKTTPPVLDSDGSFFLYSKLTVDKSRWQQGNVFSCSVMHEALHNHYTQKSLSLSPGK

B1: monoclonal antibody 9E1 against ITIH1 (antibody, V domains shown)
VH: EVQLQQSGTVLARPGASVKMSCRASGYSFTSYWMHWVKQRPGQGLEWIGSIYPGNTDTNYNQKFKGKAKLTAVTSASTAYMELSSLTNEDSAVYYCTRYGTSEGFAYWGQGTLVTVSA
VL: DIVMTQSPASLAVSLGQRATISCRASQSVSTSSYSYMHWYQQKPGQPPKLLIKYASNLESGVPARFSGSGSGTDFTLNIHPVEEEDSATYYCQHSWEIPPTFGGGTKLEIK
notes: Mouse (BALB/c) hybridoma monoclonal antibody made by AbClon Inc; also called antibody clone 9E1; 9E1 clonal antibody
In general, Kd refers to a measure of binding affinity in units of concentration. Higher therefore signals weaker binding. One may read the koff as the rate constant with which the complex falls apart. Low values mean a long-lived complex, high ones a short-lived complex. One may read the kon as the rate constant with which the complex forms. A high value points to faster complex formation. B1 returned a dissociation constant Kd of 133 pM, a dissociation rate constant (koff) of 4.45e-05 s⁻¹ and a kon of 334000 M⁻¹ s⁻¹.

B2: monoclonal antibody 5D6 against ITIH1 (antibody, V domains shown)
VH: EVQLQQSGAELVKPGTSVKMSCKASGYTFTSYWMHWVRQRPGQGLEWIGDIYPGTDSTNYNEKFKSKATLTVDTSSSTAYMQLSSLTSEDSAVYYCSRSGDYYDYWGQGTTVTVSS
VL: B1 VL with M4L, S87T, P100W
notes: Mouse (BALB/c) hybridoma monoclonal antibody made by AbClon Inc; also called antibody clone 5D6; 5D6 clonal antibody
Molecule B2 showed a dissociation constant Kd of 243 pM, an off-rate constant (koff) of 7.05e-05 s⁻¹ and an on-rate constant (kon) of 291000 M⁻¹ s⁻¹.
